To fix the notation:
B1: FERM and PDZ domain-containing protein 4, residues 75 to 154; numbered along this chain, Q14CM0 (parent)
chain: APRKVEMRRDPVLGFGFVAGSEKPVVVRSVTPGGPSEGKLIPGDQIVMINDEPVSAAPRERVIDLVRSCKESILLTVIQP

Drawing on the Human Domainome abundance scans (Beltran et al. 2025), this text covers abundance fitness for 163 variants.

± gives the uncertainty stated by the source.

Variants of B1 are the subject of this data set. The experiment in a line: abundance fitness (aPCA) (normalised: wild type 0, dead -1); higher = more abundant; growth selection in yeast, the domain comes from the species named. The following applies: Homo sapiens.
As to R8F, the abundance fitness came to 0.013 ± 0.043.
For R8S the value was -0.024 ± 0.032; for R3W, -0.769 ± 0.041; for R3S, -0.451 ± 0.026.
For the variant R3C, the abundance fitness is -0.985 ± 0.064.
As to R3H, the abundance fitness is -0.176 ± 0.038.
Turning to R3L, the abundance fitness was -0.238 ± 0.024.
Regarding R3K, the abundance fitness was -0.036 ± 0.029.
On to R3N, for which the abundance fitness is -0.299 ± 0.04.
Take R3G: the abundance fitness was -0.666 ± 0.025.
Take R3T: the abundance fitness is -0.338 ± 0.029.
In the case of R3F, the abundance fitness is -0.194 ± 0.033.
As to R3P, the abundance fitness was -0.937 ± 0.056.
Take R3Q: the abundance fitness is -0.243 ± 0.032.
On to R3Y, for which the abundance fitness was -0.197 ± 0.038.
On to R3D, for which the abundance fitness was -0.659 ± 0.045.
For R3M the value was -0.188 ± 0.03; for R3E, -0.517 ± 0.032; for R3I, -0.099 ± 0.035.
On to R3V, for which the abundance fitness is -0.165 ± 0.022.
For E6M the value was -0.061 ± 0.028.
For the variant E6F, the abundance fitness amounted to 0.043 ± 0.037.
Take E6Q: the abundance fitness is -0.03 ± 0.029.
As for E6V, the abundance fitness is -0.091 ± 0.022.
As for E6A, the abundance fitness is -0.086 ± 0.022.
Consider E6P, for which the abundance fitness is -0.184 ± 0.028.
For E6S the value was -0.016 ± 0.023; for E6T, -0.009 ± 0.027; for E6H, 0.039 ± 0.039.
With E6N, the abundance fitness is -0.014 ± 0.043.
Turning to E6Y, the abundance fitness is 0.007 ± 0.037.
E6W: the abundance fitness is -0.047 ± 0.025.
Regarding E6R, the abundance fitness was -0.029 ± 0.02.
Regarding E6G, the abundance fitness is -0.144 ± 0.02.
On to E6K, for which the abundance fitness stood at 0.002 ± 0.029.
With E6C, the abundance fitness is -0.065 ± 0.03.
With E6I, the abundance fitness was -0.006 ± 0.033.
As to E6L, the abundance fitness is -0.018 ± 0.022.
As to F17M, the abundance fitness was -0.381 ± 0.035.
In the case of F17L, the abundance fitness is -0.294 ± 0.026.
Turning to F17A, the abundance fitness was -0.857 ± 0.041.
Regarding F17T, the abundance fitness was -0.887 ± 0.054.
Consider F17D, for which the abundance fitness is -0.921 ± 0.077.
In the case of F17N, the abundance fitness was -0.923 ± 0.098.
Regarding F17P, the abundance fitness was -0.916 ± 0.066.
For the variant F17I, the abundance fitness was -0.322 ± 0.043.
In the case of F17G, the abundance fitness was -0.897 ± 0.032.
F17W: the abundance fitness is -0.218 ± 0.026.
As to F17Y, the abundance fitness is -0.395 ± 0.052.
For F17V the value was -0.704 ± 0.031; for F17H, -0.806 ± 0.074; for F17C, -0.637 ± 0.044.
For F17K the value was -0.842 ± 0.051; for F17E, -0.832 ± 0.043; for G20I, -0.051 ± 0.05.
For G20K, the abundance fitness was -0.093 ± 0.032.
As for G20E, the abundance fitness worked out at 0.01 ± 0.027.
Consider G20Q, for which the abundance fitness is -0.03 ± 0.033.
For the variant G20C, the abundance fitness was -0.094 ± 0.033.
Take G20D: the abundance fitness worked out at 0.017 ± 0.032.
Take G20W: the abundance fitness was -0.105 ± 0.026.
On to G20F, for which the abundance fitness is -0.155 ± 0.045.
Take G20L: the abundance fitness was -0.116 ± 0.025.
Take G20Y: the abundance fitness was -0.067 ± 0.04.
On to G20H, for which the abundance fitness was -0.029 ± 0.047.
Take G20S: the abundance fitness was -0.002 ± 0.025.
With G20N, the abundance fitness is -0.089 ± 0.047.
G20T: the abundance fitness is -0.061 ± 0.029.
As to K4L, the abundance fitness was -0.068 ± 0.31.
Turning to K4N, the abundance fitness was -0.218 ± 0.28.
For K4S the value was -0.084 ± 0.29; for K4R, 0.114 ± 0.17; for L13F, -0.046 ± 0.17.
On to L13S, for which the abundance fitness is -0.013 ± 0.094.
For L13V the value was -0.003 ± 0.094; for L13W, -0.046 ± 0.084; for V12Q, 0 ± 0.037.
On to V12N, for which the abundance fitness is 0.025 ± 0.056.
As to V12E, the abundance fitness was -0.068 ± 0.036.
In the case of V12H, the abundance fitness came out at 0.043 ± 0.051.
On to V12R, for which the abundance fitness is -0.023 ± 0.027.
Regarding V12Y, the abundance fitness is -0.065 ± 0.049.
On to V12F, for which the abundance fitness is -0.089 ± 0.054.
Regarding V12S, the abundance fitness was -0.006 ± 0.031.
As to V12W, the abundance fitness is -0.14 ± 0.038.
Consider V12K, for which the abundance fitness is 0.004 ± 0.04.
Turning to V12G, the abundance fitness is -0.048 ± 0.025.
In the case of V12L, the abundance fitness was -0.001 ± 0.029.
The value for V12C was -0.056 ± 0.04; that for V12T was 0.049 ± 0.039.
For V12P, the abundance fitness is -0.545 ± 0.046.
As for V12I, the abundance fitness was -0.055 ± 0.04.
The value for V12D was 0.004 ± 0.046.
The value for V12M was 0.007 ± 0.041; that for V5N was -0.778 ± 0.069.
With V5D, the abundance fitness was -0.976 ± 0.096.
Turning to V5F, the abundance fitness is -0.085 ± 0.036.
On to V5L, for which the abundance fitness is -0.154 ± 0.023.
On to V5R, for which the abundance fitness was -0.679 ± 0.026.
Regarding V5S, the abundance fitness is -0.623 ± 0.031.
For V5E, the abundance fitness was -0.192 ± 0.029.
As to V5A, the abundance fitness is -0.219 ± 0.026.
Regarding V5M, the abundance fitness is -0.192 ± 0.031.
The value for V5G was -0.997 ± 0.036; that for V5K was -0.749 ± 0.059.
In the case of V5H, the abundance fitness was -0.349 ± 0.041.
With V5C, the abundance fitness is -0.556 ± 0.038.
For V5T, the abundance fitness was -0.325 ± 0.032.
V5Q: the abundance fitness is -0.522 ± 0.034.
For V5Y, the abundance fitness was -0.107 ± 0.04.
In the case of R9V, the abundance fitness was -0.217 ± 0.024.
Consider R9D, for which the abundance fitness is -0.792 ± 0.09.
As for R9T, the abundance fitness was -0.277 ± 0.03.
Regarding R9K, the abundance fitness was -0.031 ± 0.031.
Consider R9E, for which the abundance fitness was -0.382 ± 0.03.
Take R9S: the abundance fitness was -0.152 ± 0.025.
Regarding R9M, the abundance fitness is -0.149 ± 0.032.
For R9H, the abundance fitness is -0.227 ± 0.06.
For the variant R9Q, the abundance fitness was -0.3 ± 0.035.
Consider R9G, for which the abundance fitness was -0.402 ± 0.024.
The value for R9Y was -0.089 ± 0.064.
For R9I the value was -0.142 ± 0.038; for R9A, -0.066 ± 0.024.
R9N: the abundance fitness is -0.157 ± 0.063.
For R9W the value was -0.089 ± 0.028.
For the variant R9P, the abundance fitness is -0.086 ± 0.029.
Take R9F: the abundance fitness was -0.031 ± 0.037.
On to R9C, for which the abundance fitness is -0.19 ± 0.033.
With P11Y, the abundance fitness was -0.391 ± 0.085.
As for P11H, the abundance fitness was -0.208 ± 0.054.
In the case of P11Q, the abundance fitness was -0.131 ± 0.03.
Take P11A: the abundance fitness was -0.137 ± 0.028.
Turning to P11M, the abundance fitness is -0.148 ± 0.031.
As to P11C, the abundance fitness was -0.243 ± 0.033.
Take P11T: the abundance fitness is -0.111 ± 0.029.
Take P11W: the abundance fitness was -0.405 ± 0.029.
Regarding P11V, the abundance fitness is -0.247 ± 0.026.
Consider P11D, for which the abundance fitness is -0.063 ± 0.048.
In the case of P11N, the abundance fitness was -0.157 ± 0.043.
Consider P11G, for which the abundance fitness is -0.128 ± 0.021.
The value for P11I was -0.162 ± 0.042; that for P11K was -0.09 ± 0.031.
For P11R the value was -0.123 ± 0.021.
Consider P11F, for which the abundance fitness was -0.329 ± 0.046.
Consider P11L, for which the abundance fitness is -0.143 ± 0.023.
Consider P11E, for which the abundance fitness is -0.117 ± 0.031.
For the variant D10E, the abundance fitness was -0.27 ± 0.037.
Regarding D10K, the abundance fitness was -0.42 ± 0.063.
For D10R, the abundance fitness was -0.455 ± 0.031.
With D10W, the abundance fitness is -0.422 ± 0.041.
Regarding D10Y, the abundance fitness is -0.521 ± 0.058.
In the case of D10V, the abundance fitness was -0.214 ± 0.03.
In the case of D10T, the abundance fitness was -0.38 ± 0.043.
Regarding D10I, the abundance fitness was -0.364 ± 0.067.
In the case of D10N, the abundance fitness is -0.071 ± 0.044.
As to D10L, the abundance fitness is -0.369 ± 0.034.
On to D10C, for which the abundance fitness was -0.138 ± 0.04.
On to D10S, for which the abundance fitness was -0.099 ± 0.032.
As for D10Q, the abundance fitness was -0.32 ± 0.046.
With D10G, the abundance fitness was -0.591 ± 0.032.
D10M: the abundance fitness was -0.207 ± 0.048.
In the case of D10F, the abundance fitness is -0.535 ± 0.062.
For the variant D10H, the abundance fitness was -0.12 ± 0.057.
